# Results from the supplement of paper PMC9112550, “Optimization of the antimicrobial peptide Bac7 by deep mutational scanning” (BMC Biology, 2022).
# System: Escherichia coli TOP10
# Assay: shrunken log2 fold change of peptide-encoding DNA abundance (4.5 h post-induction vs induction); higher = less antimicrobial activity (less host growth inhibition)
# Conditions: time post-induction: 4.5 h; library: site-saturation at positions 5, 18, 19, 20
# 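Also: peptides expressed intracellularly from a pBAD plasmid library in pooled LB shake-flask culture, induced with 0.3% L-arabinose, DNA abundance read by NGS, three biological replicates, DESeq2 with apeglm shrinkage.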
row,Sequence,shrunken log2 fold change
1,RRIRVRPPRLPRPRPRPKHGPRP,-0.0119
2,RRIRNRPPRLPRPRPRPQKFPRP,-0.0476
3,RRIRPRPPRLPRPRPRPPMSPRP,-0.0803
4,RRIRHRPPRLPRPRPRPVVQPRP,0.13
5,RRIRVRPPRLPRPRPRPQFGPRP,-0.018
6,RRIRCRPPRLPRPRPRPDWHPRP,-0.358
7,RRIRVRPPRLPRPRPRPFREPRP,0.0848
8,RRIRPRPPRLPRPRPRPYGNPRP,-0.79
9,RRIRSRPPRLPRPRPRPHTQPRP,-0.433
10,RRIRIRPPRLPRPRPRPSNCPRP,-0.24
11,RRIRFRPPRLPRPRPRPDNEPRP,-0.0688
12,RRIRFRPPRLPRPRPRPCVMPRP,-0.143
13,RRIRDRPPRLPRPRPRPGLDPRP,0.0981
14,RRIRFRPPRLPRPRPRPHKCPRP,-0.106
15,RRIRKRPPRLPRPRPRPTIHPRP,-0.087
16,RRIRERPPRLPRPRPRPYSIPRP,-0.0605
17,RRIRNRPPRLPRPRPRPDHAPRP,-0.0118
18,RRIRERPPRLPRPRPRPSCLPRP,-0.484
19,RRIRCRPPRLPRPRPRPVIRPRP,-0.733
20,RRIRQRPPRLPRPRPRPEHVPRP,0.00725
21,RRIRDRPPRLPRPRPRPEYLPRP,0.0986
22,RRIRMRPPRLPRPRPRPHDSPRP,-0.0393

row,Sequence,shrunken log2 fold change
1,RRIRLRPPRLPRPRPRPRCPPRP,0.188
2,RRIRQRPPRLPRPRPRPEASPRP,-0.0802
3,RRIRTRPPRLPRPRPRPEAAPRP,0.574
4,RRIRLRPPRLPRPRPRPVYGPRP,-0.183
5,RRIRPRPPRLPRPRPRPKCTPRP,-0.0758
6,RRIRERPPRLPRPRPRPSRMPRP,-0.0294
7,RRIRLRPPRLPRPRPRPHQVPRP,0.00465
8,RRIRKRPPRLPRPRPRPRSNPRP,0.515
9,RRIRARPPRLPRPRPRPFWQPRP,0.0762
10,RRIRIRPPRLPRPRPRPYAWPRP,-0.402
11,RRIRLRPPRLPRPRPRPPCHPRP,-0.178
12,RRIRKRPPRLPRPRPRPNQYPRP,-0.0702
13,RRIRIRPPRLPRPRPRPEESPRP,0.124
14,RRIRHRPPRLPRPRPRPLIFPRP,-0.38
15,RRIRHRPPRLPRPRPRPCQLPRP,-0.0748
16,RRIRSRPPRLPRPRPRPLSVPRP,-0.0334
17,RRIRLRPPRLPRPRPRPKIWPRP,-0.0443
18,RRIRMRPPRLPRPRPRPPPPPRP,2.05
19,RRIRERPPRLPRPRPRPPIWPRP,-0.0729
20,RRIRNRPPRLPRPRPRPCEAPRP,-0.18
21,RRIRYRPPRLPRPRPRPWQTPRP,-0.0202
22,RRIRSRPPRLPRPRPRPVFFPRP,0.142

row,Sequence,shrunken log2 fold change
1,RRIRHRPPRLPRPRPRPRKRPRP,0.246
2,RRIRSRPPRLPRPRPRPGSTPRP,0.0972
3,RRIRHRPPRLPRPRPRPCLSPRP,0.0289
4,RRIRIRPPRLPRPRPRPHCPPRP,-0.102
5,RRIRDRPPRLPRPRPRPHGLPRP,-0.0404
6,RRIRIRPPRLPRPRPRPRVSPRP,0.0983
7,RRIRGRPPRLPRPRPRPREMPRP,1.2
8,RRIRMRPPRLPRPRPRPGREPRP,1.02
9,RRIRWRPPRLPRPRPRPMMQPRP,0.195
10,RRIRSRPPRLPRPRPRPCYQPRP,0.0321
11,RRIRARPPRLPRPRPRPENVPRP,0.251
12,RRIRKRPPRLPRPRPRPVMPPRP,0.244
13,RRIRGRPPRLPRPRPRPKSHPRP,0.536
14,RRIRMRPPRLPRPRPRPMGAPRP,1.18
15,RRIRHRPPRLPRPRPRPDELPRP,-0.000777
16,RRIRNRPPRLPRPRPRPIKMPRP,-0.404
17,RRIRHRPPRLPRPRPRPTAKPRP,0.0616
18,RRIRWRPPRLPRPRPRPKVDPRP,0.0401
19,RRIRVRPPRLPRPRPRPGQDPRP,-0.41
20,RRIRKRPPRLPRPRPRPMEFPRP,-0.00102
21,RRIRYRPPRLPRPRPRPVMRPRP,0.0461
22,RRIRRRPPRLPRPRPRPCGIPRP,0.506

row,Sequence,shrunken log2 fold change
1,RRIRSRPPRLPRPRPRPFMQPRP,-0.638
2,RRIRGRPPRLPRPRPRPYDNPRP,-0.183
3,RRIRKRPPRLPRPRPRPHKMPRP,0.105
4,RRIRNRPPRLPRPRPRPHCQPRP,-0.861
5,RRIRLRPPRLPRPRPRPDFMPRP,-0.277
6,RRIRVRPPRLPRPRPRPWTKPRP,-0.106
7,RRIRIRPPRLPRPRPRPWQFPRP,-0.243
8,RRIRWRPPRLPRPRPRPGGYPRP,0.215
9,RRIRQRPPRLPRPRPRPQAQPRP,0.0471
10,RRIRQRPPRLPRPRPRPYHWPRP,-0.0766
11,RRIRKRPPRLPRPRPRPATVPRP,0.0874
12,RRIRNRPPRLPRPRPRPRMYPRP,-0.613
13,RRIRVRPPRLPRPRPRPPNLPRP,0.239
14,RRIRNRPPRLPRPRPRPKNPPRP,0.0494
15,RRIRRRPPRLPRPRPRPMPWPRP,0.119
16,RRIRYRPPRLPRPRPRPHASPRP,0.0262
17,RRIRMRPPRLPRPRPRPKNNPRP,0.311
18,RRIRRRPPRLPRPRPRPGMEPRP,0.0306
19,RRIRPRPPRLPRPRPRPYQWPRP,-0.124
20,RRIRGRPPRLPRPRPRPRNHPRP,0.563
21,RRIRTRPPRLPRPRPRPSDCPRP,0.131
22,RRIRQRPPRLPRPRPRPQADPRP,0.0769

row,Sequence,shrunken log2 fold change
1,RRIRPRPPRLPRPRPRPCHFPRP,-0.265
2,RRIRGRPPRLPRPRPRPSYVPRP,0.112
3,RRIRYRPPRLPRPRPRPKWAPRP,-0.0552
4,RRIRVRPPRLPRPRPRPPTTPRP,0.47
5,RRIRVRPPRLPRPRPRPHCCPRP,-0.147
6,RRIRSRPPRLPRPRPRPAESPRP,-0.04
7,RRIRGRPPRLPRPRPRPSRYPRP,-0.0843
8,RRIRQRPPRLPRPRPRPREMPRP,0.0554
9,RRIRVRPPRLPRPRPRPILEPRP,0.13
10,RRIRHRPPRLPRPRPRPIDMPRP,0.0231
11,RRIRERPPRLPRPRPRPHIRPRP,-0.126
12,RRIRQRPPRLPRPRPRPPQQPRP,0.497
13,RRIRERPPRLPRPRPRPEPYPRP,-0.0697
14,RRIRERPPRLPRPRPRPADDPRP,0.000221
15,RRIRSRPPRLPRPRPRPLIWPRP,0.312
16,RRIRQRPPRLPRPRPRPVQIPRP,0.0268
17,RRIRSRPPRLPRPRPRPAYYPRP,-0.495
18,RRIRGRPPRLPRPRPRPTKEPRP,0.439
19,RRIRTRPPRLPRPRPRPRFVPRP,-0.279
20,RRIRARPPRLPRPRPRPKTTPRP,0.0562
21,RRIRPRPPRLPRPRPRPHGWPRP,0.274
